Consider two molecules from article PMC2908078, “The YEATS family member GAS41 interacts with the general transcription factor TFIIF” (BMC Molecular Biology, 2010).

This assay has as its target T1, His-GAS41 (human, UniProt O95619 1-227).
T1 construct: source: E. coli M15 [pRep4], pQE30, purified (Ni-NTA)
The assay is described as follows: pull-down; GST-RAP30 full length or fragments d1-d3 on glutathione-sepharose 4B as bait, purified His-GAS41 (10-20 ug) as prey, over night at 4°C; immunoblot. The settings on record: both partners purified. In general terms: A western blot detects proteins with antibodies after separation by electrophoresis.

T1 sequence (O95619 whole entry): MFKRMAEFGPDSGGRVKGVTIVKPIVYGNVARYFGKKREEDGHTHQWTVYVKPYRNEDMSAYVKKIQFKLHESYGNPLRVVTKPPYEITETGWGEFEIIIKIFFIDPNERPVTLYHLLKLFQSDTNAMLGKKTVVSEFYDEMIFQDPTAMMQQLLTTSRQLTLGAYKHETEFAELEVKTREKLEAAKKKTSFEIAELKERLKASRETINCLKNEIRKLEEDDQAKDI

B1: GST-RAP30 d2 (RAP74 binding domain and polymerase binding domain, aa1-169) (domain or fragment, human, UniProt P13984 1-169, looked up)
chain: MAERGELDLTGAKQNTGVWLVKVPKYLSQQWAKASGRGEVGKLRIAKTQGRTEVSFTLNEDLANIHDIGGKPASVSAPREHPFVLQSVGGQTLTVFTESSSDKLSLEGIVVQRAECRPAASENYMRLKRLQIEESSKPVRLSQQLDKVVTTNYKPVANHQYNIEYERKK
notes: source: E. coli BL21 (DE3), pGEX-4T1
In the case of B1, the binding result is “binds”.

B2: GST-RAP30 d3 (DNA binding site, aa169-249) (domain or fragment, human, UniProt P13984 169-249, looked up)
chain: KKEDGKRARADKQHVLDMLFSAFEKHQYYNLKDLVDITKQPVVYLKEILKEIGVQNVKGIHKNTWELKPEYRHYQGEEKSD
notes: as for B1
As to B2, the binding result is “binds”.
